# In PMC11885566 (Communications Biology, 2025):
# B1: CYFN1006-1 (antibody, V domains shown)
# VH: QMQLVQSGAEVKKPGESLKISCKGSGYTFSYYWIGWVRQMPGKGLEWMGIIYPGDSDTRYSPSFQGQVTISADKSISTAYLHWSSLKASDTAMYYCARQGDLGDWILLGYWGQGTLVTVSS
# VL: QSALTQPRSVSGSLGQSVTISCTGISSDVGGDNYVSWYQQHPGKAPKLMIYDVSKRPSGVPDRFSGSKSGNTASLTISGLQADDEADYYCCSYALSRVVFGGGTMLTVL
# Molecular target: SARS-CoV-2 XBB.1.16 RBD protein (SARS-CoV-2 Omicron XBB.1.16, strain)
# Assay: BLI
binder,measurement,value
B1,Kd,1.37 nM
